The results in this text go back to patent US20070105796A1 (published 2007).

The assay concerns the target T1, TERT (telomerase reverse transcriptase), catalytic subunit of telomerase (human, UniProt O14746 1-1132).
T1 construct: also called human TERT
The experiment in a line: co-expression in HEK293T cells, immunoprecipitation with anti-HA antibody, Western blotting with anti-TERT antibody (FIG. 3). The protocol:
After culturing 4×10⁵ HEK293T cells at 37° C. overnight under the atomosphere of 5% CO₂ (in a dish with 60 mm diameter), 2 μg of the expression plasmid of HA-tagged MAPKAPK3 or pcDNA3.1 (+) as a negative control was transfected together with 2 μg of TERT expression plasmid using FuGENE6 Transfection Reagent (Roche). After 2 days of culturing, cells were washed with ice-cold phosphate buffered physiologically saline (PBS (−)), collected and suspended in 500 μl of cell lysis buffer (20 mM Tris-HCl, pH7.4/150 mM NaCl/1 mM ethylenediaminetetraacetic acid (EDTA)/2.5 mM sodium pyrophsphate)/1 mM β-glycerophsphate/1 mM Na₃VO₄/protease inhibitor cocktail), and left to stand on ice for 10 minutes. Subsequently, centrifugation was conducted at 4° C. for 10 minutes at 14,000 rpm to collect the supernatant for use as a cell lysate. Then, 10 μl of agarose-conjugated normal rabbit IgG (Sigma) was added to 500 μl of the cell lysate and subjected to overturned mixing at 4° C. for 30 minutes, followed by subjecting to centrifugation to collect the supernatant. 10 μl of agarose-conjugated anti-HA antibody (Y11, SantaCruz) was added to the collected supernatant, and subjected to overturned mixing at 4° C. overnight, followed by subjecting to centrifugation to collect the agarose beads. […] Subsequently, the binding protein was detected by Western blotting using an anti-TERT antibody (L-20, SantaCruz). […]

T1 sequence (O14746 whole entry): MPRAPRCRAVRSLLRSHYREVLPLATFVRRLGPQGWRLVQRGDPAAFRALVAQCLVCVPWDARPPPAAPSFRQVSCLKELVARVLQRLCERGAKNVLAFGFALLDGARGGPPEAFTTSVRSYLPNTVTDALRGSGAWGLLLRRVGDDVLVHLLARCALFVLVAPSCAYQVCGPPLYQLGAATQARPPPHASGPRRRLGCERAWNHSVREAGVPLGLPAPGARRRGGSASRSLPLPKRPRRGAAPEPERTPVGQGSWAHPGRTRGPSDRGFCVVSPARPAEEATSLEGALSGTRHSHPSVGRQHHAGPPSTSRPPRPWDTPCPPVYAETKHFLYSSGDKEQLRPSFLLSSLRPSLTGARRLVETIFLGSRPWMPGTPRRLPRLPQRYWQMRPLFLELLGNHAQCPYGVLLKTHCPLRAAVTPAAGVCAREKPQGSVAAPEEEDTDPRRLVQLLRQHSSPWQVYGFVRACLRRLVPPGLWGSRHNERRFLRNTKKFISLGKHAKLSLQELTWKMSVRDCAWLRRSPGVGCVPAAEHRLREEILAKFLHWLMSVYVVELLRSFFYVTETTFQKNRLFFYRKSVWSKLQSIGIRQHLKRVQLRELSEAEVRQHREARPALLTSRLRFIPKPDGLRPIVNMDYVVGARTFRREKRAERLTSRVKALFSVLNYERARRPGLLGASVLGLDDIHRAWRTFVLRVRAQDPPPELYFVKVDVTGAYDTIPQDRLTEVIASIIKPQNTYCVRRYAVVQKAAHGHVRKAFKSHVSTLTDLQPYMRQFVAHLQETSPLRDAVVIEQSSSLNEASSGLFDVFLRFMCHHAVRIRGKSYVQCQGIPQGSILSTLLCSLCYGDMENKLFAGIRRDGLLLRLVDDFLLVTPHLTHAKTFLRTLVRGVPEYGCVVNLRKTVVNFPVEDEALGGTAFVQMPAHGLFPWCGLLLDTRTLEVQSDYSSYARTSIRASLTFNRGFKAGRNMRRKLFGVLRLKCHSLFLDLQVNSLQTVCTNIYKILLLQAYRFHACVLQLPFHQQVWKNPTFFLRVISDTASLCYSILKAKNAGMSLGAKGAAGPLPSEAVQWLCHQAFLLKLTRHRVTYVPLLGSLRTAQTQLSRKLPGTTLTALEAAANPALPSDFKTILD

B1: N-terminal HA-tagged MAPKAPK3 (enzyme)
chain: MDGETAEEQGGPVPPPVAPGGPGLGGAPGGRREPKKYAVTDDYQLSKQVLGLGVNGKVLECFHRRTGQKCALKLLYDSPKARQEVDHHWQASGGPHIVCILDVYENMHHGKRCLLIIMECMEGGELFSRIQERGDQAFTEREAAEIMRDIGTAIQFLHSHNIAHRDVKPENLLYTSKEKDAVLKLTDFGFAKETTQNALQTPCYTPYYVAPEVLGPEKYDKSCDMWSLGVIMYILLCGFPPFYSNTGQAISPGMKRRIRLGQYGFPNPEWSEVSEDAKQLIRLLLKTDPTERLTITQFMNHPWINQSMVVPQTPLHTARVLQEDKDHWDEVKEEMTSALATMRVDYDQVKIKDLKTSNNRLLNKRRKKQAGSSSASQGCNNQ
notes: Expressed in HEK293T cells from pcDNA3.1(+); also called HA-MAPKAPK3; not shown: HA-tag at the N-terminus
Regarding B1, the binding result is listed as “binds”.
